Results as given in US20240368238A1 (DRACOTERPIN BIOMEDICINE, published 2024).
Where a chain is given by its changes, count along the chain named. Each block holds one binder with its values, some of them ahead of it.

Columns and labels:
[1] = molecular target: T1, IL-2Rβ/γ-Fc heterodimer (IL-2Rβ-Fc-hole + IL-2Rγ-Fc-knob) (UniProt P14784 27-240; P31785 23-262); experiment: BLI (Octet RED96e), AR2G sensors, IL-2Rβ/γ-Fc heterodimer as analyte, 1:1 global fit
T1 construct: Both chains transfected together into HEK293; purified with Protein A and Superdex 200; used as the analyte in the BLI; also called IL-2Rβ/γ heterodimers; not shown: Fc hole; Fc knob
T1 sequence (looked up) 1: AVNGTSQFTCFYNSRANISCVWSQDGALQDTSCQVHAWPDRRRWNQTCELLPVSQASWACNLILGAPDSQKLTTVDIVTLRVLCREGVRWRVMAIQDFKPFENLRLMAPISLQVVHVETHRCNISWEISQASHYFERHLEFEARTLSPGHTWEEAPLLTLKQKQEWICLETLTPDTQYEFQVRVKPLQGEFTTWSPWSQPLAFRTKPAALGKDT
T1 sequence (looked up) 2: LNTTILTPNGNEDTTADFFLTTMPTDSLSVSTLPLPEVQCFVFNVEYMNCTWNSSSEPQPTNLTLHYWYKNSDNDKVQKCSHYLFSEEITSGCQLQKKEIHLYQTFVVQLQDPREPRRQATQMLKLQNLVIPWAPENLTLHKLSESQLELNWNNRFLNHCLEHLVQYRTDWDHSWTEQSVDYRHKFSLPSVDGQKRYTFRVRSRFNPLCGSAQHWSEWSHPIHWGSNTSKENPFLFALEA
Method: (§1) Experimental data were processed using Data Analysis software 9.0. […] The method of global fitting was applied, i.e., the 6 concentrations were analyzed as a group.

[2] = molecular target: T2, IL2-Rα-his (UniProt P01589 22-240, limits assumed); experiment: Octet BLI per Example 2, IL-2Rα-his as analyte at the concentration on the x axis; y axis on the sheet reads OD490
T2 construct: used as the analyte in the BLI; also called IL-2 receptor α; CD25; not shown: his tag
T2 sequence (looked up): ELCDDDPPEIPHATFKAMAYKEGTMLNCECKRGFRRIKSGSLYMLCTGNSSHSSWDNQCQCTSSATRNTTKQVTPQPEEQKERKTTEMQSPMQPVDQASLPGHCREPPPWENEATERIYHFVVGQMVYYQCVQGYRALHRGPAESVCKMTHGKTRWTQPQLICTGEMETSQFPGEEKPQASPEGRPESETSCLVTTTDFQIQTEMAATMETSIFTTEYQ
Method: (§2) 2. The experiment was performed with reference to the experimental design below. The whole experiment was completed under the conditions of 30° C., 1000 rpm, 220 μl/well. The proteins used in the experiment were IL2-Rα-his and IL-2 variants or derivatives thereof obtained by transient expression in HEK293 and affinity purification.
as §1

[3] = molecular target: T3, IL-2Rβ/γ receptor subunit complex on CTLL-2 cells (UniProt P16297 27-539; P34902 23-369); experiment: cell-based or functional assay
T3 sequence (looked up) 1: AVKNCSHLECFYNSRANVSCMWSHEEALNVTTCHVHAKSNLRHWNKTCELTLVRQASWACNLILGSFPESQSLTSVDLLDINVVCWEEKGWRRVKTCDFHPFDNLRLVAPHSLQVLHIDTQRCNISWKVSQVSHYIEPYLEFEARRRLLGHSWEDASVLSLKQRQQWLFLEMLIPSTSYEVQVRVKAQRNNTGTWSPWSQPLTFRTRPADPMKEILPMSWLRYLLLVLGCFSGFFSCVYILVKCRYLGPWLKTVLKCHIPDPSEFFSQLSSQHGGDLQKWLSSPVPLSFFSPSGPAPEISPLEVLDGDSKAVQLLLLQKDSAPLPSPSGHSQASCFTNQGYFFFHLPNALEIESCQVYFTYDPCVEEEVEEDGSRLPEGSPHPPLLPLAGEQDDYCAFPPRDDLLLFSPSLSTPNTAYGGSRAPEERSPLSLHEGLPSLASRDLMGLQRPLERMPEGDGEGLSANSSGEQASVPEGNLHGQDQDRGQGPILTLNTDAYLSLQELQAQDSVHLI
T3 sequence (looked up) 2: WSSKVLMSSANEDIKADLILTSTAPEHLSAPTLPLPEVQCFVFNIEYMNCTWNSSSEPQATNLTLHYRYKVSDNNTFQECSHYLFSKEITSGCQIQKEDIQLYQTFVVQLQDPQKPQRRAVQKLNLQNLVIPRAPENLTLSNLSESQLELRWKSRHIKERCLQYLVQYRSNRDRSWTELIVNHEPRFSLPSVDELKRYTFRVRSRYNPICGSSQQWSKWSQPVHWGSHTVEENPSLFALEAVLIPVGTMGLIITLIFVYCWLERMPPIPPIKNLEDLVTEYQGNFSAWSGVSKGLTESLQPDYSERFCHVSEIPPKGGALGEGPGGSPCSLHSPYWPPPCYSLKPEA

[4] = molecular target: T1, IL-2Rβ/γ-Fc heterodimer (IL-2Rβ-Fc-hole …); experiment: Octet BLI per Example 3, IL-2Rβ/γ-Fc heterodimer as analyte at the concentration on the x axis; y axis on the sheet reads OD490
Method: as §1

[5] = molecular target: T2, IL2-Rα-his; experiment: BLI (Octet RED96e), AR2G sensors, IL-2Rα-his as analyte, 1:1 global fit
Method: as §2, §1

B1: IL-2-6 (35-41 + 43-45 + 125) (ligand)
chain: APTSSSTKKTQLQLEHLLLDLQMILNGINNYKNPMHGLDGFGMPKKATELKHLQCLEEELKPLEEVLNLAQSKNFHLRPRDLISNINVIVLELKGSETTFMCEYADETATIVEFLNRWITFAQSIISTLT
notes: Human IL-2 variant; HEK293 expression, purified by the HPC4 tag; not shown: HPC4 tag at the C-terminus
- Kd [1]: 19.6 nM
- binding result [2]: no binding (tested: 500 nM)
- Relative activity (CTLL-2 cell proliferation, CCK-8) [3]: 13%
- EC50 (read off the curve) [4]: ~100 nM

B4: IL-2-1 (31-32 + 35-41 + 43-45 + 125) (ligand)
chain: B1 chain with Y31G, K32G
notes: as for B1
- Kd [1]: 17.9 nM
- binding result [2]: no binding (tested: 500 nM)
- Relative activity (CTLL-2 cell proliferation, CCK-8) [3]: 13%
- EC50 (read off the curve) [4]: ~100 nM

B5: IL-2-3 (31-32 + 125) (ligand)
chain: APTSSSTKKTQLQLEHLLLDLQMILNGINNGGNPKLTRMLTFKFYMPKKATELKHLQCLEEELKPLEEVLNLAQSKNFHLRPRDLISNINVIVLELKGSETTFMCEYADETATIVEFLNRWITFAQSIISTLT
notes: as for B1
- Kd [1]: 3.74 nM
- Kd [5]: 0.656 nM
- EC50 (read off the curve) [2]: ~60 nM
- Relative activity (CTLL-2 cell proliferation, CCK-8) [3]: 100%
- EC50 (read off the curve) [4]: ~100 nM

B6: IL-2-4 (43-45 + 125) (ligand)
chain: APTSSSTKKTQLQLEHLLLDLQMILNGINNYKNPKLTRMLTFGMPKKATELKHLQCLEEELKPLEEVLNLAQSKNFHLRPRDLISNINVIVLELKGSETTFMCEYADETATIVEFLNRWITFAQSIISTLT
notes: as for B1
- Kd [1]: 4.11 nM
- Kd [5]: 0.799 nM
- EC50 (read off the curve) [2]: ~60 nM
- Relative activity (CTLL-2 cell proliferation, CCK-8) [3]: 100%
- EC50 (read off the curve) [4]: ~100 nM

B8: IL-2-2 (35-41 + 125) (ligand)
chain: APTSSSTKKTQLQLEHLLLDLQMILNGINNYKNPMHGLDGFKFYMPKKATELKHLQCLEEELKPLEEVLNLAQSKNFHLRPRDLISNINVIVLELKGSETTFMCEYADETATIVEFLNRWITFAQSIISTLT
notes: as for B1
- Kd [1]: 4.87 nM
- Kd [5]: 0.789 nM
- EC50 (read off the curve) [2]: ~60 nM
- Relative activity (CTLL-2 cell proliferation, CCK-8) [3]: 64%
- EC50 (read off the curve) [4]: ~100 nM

B9: IL-2-5 (31-32 + 35-41 + 125) (ligand)
chain: B8 chain with Y31G, K32G
notes: as for B1
- Kd [1]: 5.24 nM
- Kd [5]: 0.904 nM
- EC50 (read off the curve) [2]: ~60 nM
- Relative activity (CTLL-2 cell proliferation, CCK-8) [3]: 90%
- EC50 (read off the curve) [4]: ~100 nM

The next lines start with the values.

- Kd [1]: 27.2 nM
- binding result [2]: no binding (tested: 500 nM)
- Relative activity (CTLL-2 cell proliferation, CCK-8) [3]: 8%
- EC50 (read off the curve) [4]: ~100 nM
B2: IL-2-9 (35-41 + 43-45 + 125) (ligand)
chain: B1 chain with M35G, H36G, L38G, D39G
notes: as for B1

- Kd [1]: 21.3 nM
- binding result [2]: no binding (tested: 1000 nM)
- Relative activity (CTLL-2 cell proliferation, CCK-8) [3]: 8%
- EC50 (read off the curve) [4]: ~100 nM
B3: IL-2-8 (35-43 + 125) (ligand)
chain: B1 chain with H36G, D39G, G42Y
notes: as for B1

- Kd [1]: 6.48 nM
- Kd [5]: 3.25 nM
- EC50 (read off the curve) [2]: ~70 nM
- Relative activity (CTLL-2 cell proliferation, CCK-8) [3]: 58%
- EC50 (read off the curve) [4]: ~100 nM
B7: IL-2-7 (31-32 + 43-45 + 125) (ligand)
chain: B6 chain with Y31G, K32G
notes: as for B1
